One molecule from patent US6284456, “Transcriptional coactivator that interacts with Tat protein and regulates its binding to TAR RNA, methods for modulating Tat transactivation, and uses therefor” (The Salk Institute for Biological Studies, dated 2001) can be followed below.

The assay addresses cyclin T1 (native 87 kDa protein of HeLa nuclear extract) (human). Briefly: GST-Tat bead pull-down from HeLa nuclear extract, SDS-PAGE, silver stain.

Sequence of cyclin T1 (native 87 kDa protein of HeLa nuclear extract) (human) (chain, as listed by the source limits assumed): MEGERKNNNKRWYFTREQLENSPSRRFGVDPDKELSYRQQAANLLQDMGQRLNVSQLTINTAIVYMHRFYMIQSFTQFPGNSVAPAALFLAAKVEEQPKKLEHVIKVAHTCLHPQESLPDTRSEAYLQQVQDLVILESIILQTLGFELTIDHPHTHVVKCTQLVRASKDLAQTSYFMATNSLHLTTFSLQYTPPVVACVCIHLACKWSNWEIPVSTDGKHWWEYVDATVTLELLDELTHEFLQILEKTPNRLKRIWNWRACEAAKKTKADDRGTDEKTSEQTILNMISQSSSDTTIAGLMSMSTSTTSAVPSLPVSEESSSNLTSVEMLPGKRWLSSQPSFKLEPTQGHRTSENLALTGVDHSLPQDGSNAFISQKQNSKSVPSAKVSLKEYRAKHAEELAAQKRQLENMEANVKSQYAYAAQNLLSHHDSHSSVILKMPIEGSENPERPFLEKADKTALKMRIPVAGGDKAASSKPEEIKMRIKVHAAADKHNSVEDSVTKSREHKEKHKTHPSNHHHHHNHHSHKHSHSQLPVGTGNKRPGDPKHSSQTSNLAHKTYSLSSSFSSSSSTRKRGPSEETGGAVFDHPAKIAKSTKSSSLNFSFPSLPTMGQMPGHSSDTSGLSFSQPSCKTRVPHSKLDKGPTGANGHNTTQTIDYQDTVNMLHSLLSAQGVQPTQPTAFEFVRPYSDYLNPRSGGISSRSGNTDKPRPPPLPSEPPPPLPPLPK

B1: GST-Tat-1 K41A (aa 1-48) (other)
chain: MEPVDPRLEPWKHPGSQPKTACTNCYCKKCCFHCQVCFITAALGISYG
For the molecule B1, the binding result was “no binding”.
